Experimental data as given in patent US20230038638A1, “COMPLEMENT FACTOR I-RELATED COMPOSITIONS AND METHODS” (published 2023).

Columns and labels:
human C4b (human) = biological target: T1, human C4b (human) (UniProt P0C0L4)
T1 sequence: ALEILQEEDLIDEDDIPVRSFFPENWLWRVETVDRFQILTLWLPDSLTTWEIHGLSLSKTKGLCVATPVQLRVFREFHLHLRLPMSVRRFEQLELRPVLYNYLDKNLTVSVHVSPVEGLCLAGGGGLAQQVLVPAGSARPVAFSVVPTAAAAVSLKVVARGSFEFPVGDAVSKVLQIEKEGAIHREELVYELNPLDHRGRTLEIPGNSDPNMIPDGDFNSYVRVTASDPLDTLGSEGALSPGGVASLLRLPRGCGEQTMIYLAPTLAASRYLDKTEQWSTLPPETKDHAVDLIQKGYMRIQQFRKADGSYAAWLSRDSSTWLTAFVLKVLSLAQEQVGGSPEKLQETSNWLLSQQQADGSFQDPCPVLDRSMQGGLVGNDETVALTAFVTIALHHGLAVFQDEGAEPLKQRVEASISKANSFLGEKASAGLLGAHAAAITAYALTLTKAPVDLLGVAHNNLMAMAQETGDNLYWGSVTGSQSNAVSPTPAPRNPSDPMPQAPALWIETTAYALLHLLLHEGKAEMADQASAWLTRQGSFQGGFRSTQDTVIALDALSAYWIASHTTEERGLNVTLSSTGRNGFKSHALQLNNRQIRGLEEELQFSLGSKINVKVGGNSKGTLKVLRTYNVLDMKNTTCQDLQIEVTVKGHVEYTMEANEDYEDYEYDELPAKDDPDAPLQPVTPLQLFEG

[1] = biological target: soluble human C3b (human) (UniProt P01024)
[2] = biological target: soluble human C3b (human) (UniProt P01024); remark: listed apart in the source

Substance: CFI-HSA variant D425I (enzyme)
- C4c EC50 (human C4b (human)): 112 nM
- iC3b EC50 [1]: 13 nM

Substance: CFI-HSA variant K504D (enzyme)
- iC3b Screen Ref Fold (fold of reference) [2]: 0.17
- C4c EC50 (nM) (human C4b (human)): > 1000 nM
- iC3b EC50 [1]: 53.1 nM

Substance: CFI-HSA variant N531G; WT; GGSSGG (SEQ ID NO: 6); CR1(ccp15-17) (enzyme)
- C4c EC50 (human C4b (human)): 60 nM
- iC3b EC50 [1]: 36.7 nM

Substance: CFI-HSA variant T377G; E457G (enzyme)
- C4c EC50 (nM) (human C4b (human)): 20.7 nM
- iC3b EC50 [1]: 5.9 nM

Substance: CFI-HSA variant R557W (enzyme)
- C4c EC50 (nM) (human C4b (human)): 165 nM
- iC3b EC50 [1]: 198 nM

Substance: CFI-HSA variant Y408L; E457G; E461Q; R462K; N531G; ΔC-term (Δ558-PFISQYNV (SEQ ID NO: 14)-565) (enzyme)
- C4c EC50 (nM) (human C4b (human)): 111 nM
- iC3b EC50 [1]: 131 nM

Substance: CFI-HSA variant K504E; Y408L; N531G (enzyme)
- C4c EC50 (human C4b (human)): 120 nM
- iC3b EC50 [1]: 19.4 nM

Substance: CFI-HSA variant L307A (enzyme)
- C4c EC50 (human C4b (human)): 93.4 nM
- iC3b EC50 [1]: 17.1 nM

Substance: CFI-HSA variant R557P (enzyme)
- C4c EC50 (nM) (human C4b (human)): 96.3 nM
- iC3b EC50 [1]: 288 nM

Substance: CFI-HSA variant Y408L; N531G; R557A (enzyme)
- C4c EC50 (nM) (human C4b (human)): 54.5 nM
- iC3b EC50 [1]: 51.6 nM

Substance: CFI-HSA variant F464P (enzyme)
- C4c EC50 (human C4b (human)): > 1000 nM
- iC3b EC50 [1]: > 500 nM

Substance: CFI-HSA variant Y408L; E457G; E461Q; R462K; N531G; R557K (enzyme)
- C4c EC50 (nM) (human C4b (human)): 17.3 nM
- iC3b EC50 [1]: 24.6 nM

Substance: CFI-HSA variant E457G; N531G; E530Y (enzyme)
- C4c EC50 (nM) (human C4b (human)): 13 nM
- iC3b EC50 [1]: 5 nM

Substance: CFI-HSA variant R557F (enzyme)
- C4c EC50 (nM) (human C4b (human)): 145 nM
- iC3b EC50 [1]: 168 nM

Substance: CFI-HSA variant Y408L; N531G; E457G; R462K (enzyme)
- C4c EC50 (human C4b (human)): 23 nM
- iC3b EC50 [1]: 6.9 nM

Substance: CFI-HSA variant N531G; E461Q (enzyme)
- C4c EC50 (human C4b (human)): 24.2 nM
- iC3b EC50 [1]: 5.4 nM

Substance: CFI-HSA variant R557Y (enzyme)
- C4c EC50 (nM) (human C4b (human)): 145 nM
- iC3b EC50 [1]: 116 nM

Substance: CFI-HSA variant Y408L; N531G; ΔC-term (Δ558-PFISQYNV (SEQ ID NO: 14)-565) (enzyme)
- C4c EC50 (nM) (human C4b (human)): 173 nM
- iC3b EC50 [1]: 110 nM

Substance: CFI-HSA variant T377G; N531G (enzyme)
- C4c EC50 (nM) (human C4b (human)): 19.2 nM
- iC3b EC50 [1]: 6.6 nM

Substance: CFI-HSA variant R462K; F464Y (enzyme)
- C4c EC50 (human C4b (human)): > 1000 nM
- iC3b EC50 [1]: 106 nM

Substance: CFI-HSA variant E457G; D425R; E530Y (enzyme)
- C4c EC50 (nM) (human C4b (human)): 234 nM
- iC3b EC50 [1]: 3.6 nM

Substance: CFI-HSA variant N531G; E457G; E461Q; R462K (enzyme)
- C4c EC50 (human C4b (human)): 18.4 nM
- iC3b EC50 [1]: 5.9 nM

Substance: CFI-HSA variant R557E (enzyme)
- C4c EC50 (nM) (human C4b (human)): 151 nM
- iC3b EC50 [1]: > 500 nM

Substance: CFI-HSA variant E457G; N531G (enzyme)
- C4c EC50 (human C4b (human)): 11.2 nM
- iC3b EC50 [1]: 6.5 nM

Substance: CFI-HSA variant H370G (enzyme)
- C4c EC50 (nM) (human C4b (human)): > 1000 nM
- iC3b EC50 [1]: 80.8 nM

Substance: CFI-HSA variant N531G; P535A; GGSSGG (SEQ ID NO: 6); CR1(ccp15-17) (enzyme)
- C4c EC50 (human C4b (human)): 60.1 nM
- iC3b EC50 [1]: 20.4 nM

Substance: CFI-HSA variant R557S (enzyme)
- C4c EC50 (nM) (human C4b (human)): 247 nM
- iC3b EC50 [1]: 208 nM

Substance: CFI-HSA variant D425T (enzyme)
- C4c EC50 (human C4b (human)): 227 nM
- iC3b EC50 [1]: 11.5 nM
